Laboratory results: US20240352143A1 (Incyte, published 2024)

Key:
recombinant human CD73 = target: T1, recombinant human CD73 (human, UniProt P21589 27-549); experiment: enzyme inhibition assay with recombinant full length CD73, adenosine by LC-MS, mixed-inhibition model
T1 construct: Soluble recombinant CD73 (BPS Bioscience stock in the SPR); also called rhuCD73; human CD73, open conformation
T1 sequence: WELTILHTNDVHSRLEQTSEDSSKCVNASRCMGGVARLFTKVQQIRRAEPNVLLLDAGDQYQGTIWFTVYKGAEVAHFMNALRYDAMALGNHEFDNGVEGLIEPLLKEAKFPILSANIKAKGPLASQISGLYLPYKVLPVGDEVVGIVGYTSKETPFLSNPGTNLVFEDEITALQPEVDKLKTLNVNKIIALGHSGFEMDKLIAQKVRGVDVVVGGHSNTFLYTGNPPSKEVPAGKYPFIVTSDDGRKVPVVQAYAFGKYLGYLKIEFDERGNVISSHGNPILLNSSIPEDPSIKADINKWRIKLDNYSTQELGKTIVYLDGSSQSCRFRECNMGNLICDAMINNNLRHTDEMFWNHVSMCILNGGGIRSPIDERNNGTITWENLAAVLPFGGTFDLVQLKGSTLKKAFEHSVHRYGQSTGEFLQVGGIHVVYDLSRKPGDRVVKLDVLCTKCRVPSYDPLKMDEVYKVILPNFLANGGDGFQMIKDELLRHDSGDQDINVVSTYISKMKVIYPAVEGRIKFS
Experimental: Briefly, the inhibition potencies of the agents were measured in an enzyme assay using adenosine ¹³C₁₀, ¹⁵N₅ 5′-monophosphate sodium salt solution (650676, Sigma) as substrate and detecting product, adenosine by LC-MS. Antibody agents were serially diluted in buffer and a volume of 5 μL was transferred to a 96-well plate. 20 μL of 0.5 μM recombinant CD73 in assay buffer (25 mM Tris, 5 mM MgCl₂, 0.005% Brij35 pH 7.5) was added to the plate and pre-incubated for 2 hours at 25° C. The assay was initiated by the addition of a 25 μL solution containing AMP at various concentrations. The reactions were run for 0.5 hr at 25° C. and then quenched with 50 μL of methanol.

[1] = target: T2, cell surface CD73 on MDA-MB-231 and A375 cells (human, UniProt P21589 27-549); experiment: flow cytometry on MDA-MB-231 cells, antibody 30 min on ice, PE-conjugated secondary antibody, GMFI
T2 construct: A375: moderate level; also called cellular CD73
T2 sequence: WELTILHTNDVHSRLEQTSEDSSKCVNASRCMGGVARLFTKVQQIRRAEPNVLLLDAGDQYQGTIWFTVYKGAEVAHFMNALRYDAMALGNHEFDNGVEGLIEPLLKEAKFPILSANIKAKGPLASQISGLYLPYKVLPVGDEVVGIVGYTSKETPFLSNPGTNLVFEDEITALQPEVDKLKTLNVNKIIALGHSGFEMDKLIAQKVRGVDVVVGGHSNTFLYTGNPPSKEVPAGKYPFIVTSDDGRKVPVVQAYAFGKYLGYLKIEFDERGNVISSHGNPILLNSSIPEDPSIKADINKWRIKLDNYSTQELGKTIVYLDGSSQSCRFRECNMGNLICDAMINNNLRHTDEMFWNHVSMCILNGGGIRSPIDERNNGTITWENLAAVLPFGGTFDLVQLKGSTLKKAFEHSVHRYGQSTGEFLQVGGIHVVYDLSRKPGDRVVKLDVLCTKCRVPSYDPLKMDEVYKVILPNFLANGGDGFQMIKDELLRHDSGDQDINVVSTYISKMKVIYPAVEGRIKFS
Experimental: The cells were stained with the indicated concentration of antibodies for 30 minutes on ice (FIG. 2A and FIG. 2B). Next, the cells were washed and stained using goat anti-mouse secondary conjugated to phycoerythrin (PE) for 30 minutes on ice. The cells were then washed and analyzed by flow cytometry. Geometric mean fluorescence intensity (GMFI) of CD73 staining was graphed (FIG. 2A and FIG. 2B).

B1: HzCL25 (antibody, human IgG1, kappa, N297A, V domains shown)
VH: EVQLVQSGAEVKKPGESLKISCKGSGYTFTSYGLSWVRQMPGKGLEWMGEIYPGSGNTYYNEKFKGQVTISADKSISTAYLQWSSLKASDTAMYYCARYDYLGSSYGFDYWGAGTTVTVSS
VL: DIVMTQSPDSLAVSLGERATINCKASQDVSTAVAWYQQKPGQPPKLLIYSASYRYSGVPDRFSGSGSGTDFTLTISSLQAEDVAVYYCQQHYNTPYTFGGGTKLEIKR
notes: Humanized IgG1/kappa with N297A (EU); also called HzCL25 IgG; humanized CL25
Recombinant human CD73
  Ki: 0.3 nM

B2: CL25_hu_8-5 (antibody, V domains shown)
VH: QVQLVQSGAEVKKPGASVKVSCKASGYTFTSYGLSWVRQATGQGLEWMGEIYPGSGNTYYNEKFKGRVTMTRNTSISTAYMELSSLRSEDTAVYYCARYDYLGSSYGFDYWGAGTTVTVSS
VL: DIVMTQSPDSLAVSLGERATINCKASQDVSTAVAWYQQKPGQPPKLLIYSASYRYSGVPDRFSGSGSGTDFTLTISSLQAEDVAVYYCQQHYNTPYTFGGGTKLEIK
notes: Humanized CL25 variant
[1]
  EC50 (read off the curve): ~0.06 µg/mL
